Source: patent publication US20080313769A9, “EPSP synthase domains conferring glyphosate resistance” (Athenix Corporation, priority 2006, published 2008)

Legend:
E. coli cells = assay: Growth of E. coli expressing EPSP synthase genes on M63 agar medium containing glyphosate; format: cell-based; details: for Glyphosate resistance conferred by expression in E. coli (summary in words): M63 agar, various concentrations of glyphosate, vs pAX701 glyphosate-sensitive control
Description: The coding sequence of the Clostridium acetobutylicum EPSP synthase gene (SEQ ID NO:5), identified in Genbank accession number NC—003030, was PCR amplified using the following primers: […] (upper) (SEQ ID NO:42) and […] (lower) (SEQ ID NO:43). The upper primer changed the start codon to ATG from TTG, as it naturally occurs. The resultant 1.3 kb product was digested with BamH I and Asc I, and ligated into the same sites of a modified version of pUC 18 and transformed into the E. coli strain DH5a. A positive clone containing the EPSP synthase insert was identified by restriction digest and named pAX714. A pAX714 colony was struck onto minimal M63 media containing IPTG, carbenicillin and 0, 20, 50 or 100 mM glyphosate, and the plates were incubated at 37° C. […] The encoded EPSP synthase (SEQ ID NO:6) was named grg10.
(§1) Plasmids pAX714 and pAX716, containing grg10 and grg20, respectively, were transformed into E. coli cells and streaked onto M63 agar medium containing IPTG, carbenicillin, and various concentrations of glyphosate. Colonies of pAX701 (containing the wild-type E. coli aroA gene) were used as glyphosate-sensitive controls.
as §1, with “pAX723” for “pAX714”, “pAX72^4,” for “pAX716,”, “grg21” for “grg10”, “grg22,” for “grg20,”

bacteria and plants = details: statement referring to earlier patent applications; cited from earlier work

B1: grg20: EPSP synthase of Sulfolobus solfataricus (SEQ ID NO:12), expressed from plasmid pAX716 (protein, listed as Solfolobus solfataricus)
chain: MIVKIYPSKISGIIKAPQSKSLAIRLIFLSLFTRVYLHNLVLSEDVIDAIKSVRALGVKVKNNSEFIPPEKLEIKERFIKLKGSATTLRMLIPILAAIGGEVTIDADESLRRRPLNRIVQALSNYGISFSSYSLPLTITGKLSSNEIKISGDESSQYISGLIYALHILNGGSIEILPPISSKSYILLTIDLFKRFGSDVKFYGSKIHVNPNNLVEFQGEVAGDYGLASFYALSALVSGGGITITNLWEPKEYFGDHSIVKIFSEMGASSEYKDGRWFVKAKDKYSPIKIDIDDAPDLAMTIAGLSAIAEGTSEIIGIERLRIKESDRIESIRKILGLYGVGSEVKYNSILIFGINKGMLNSPVTDCLNDHRVAMMSSALALVNGGVITSAECVGKSNPNYWQDLLSLNAKISIE
- Glyphosate resistance conferred by expression in E. coli (summary in words) (E. coli cells): confers resistance to high levels of glyphosate

B2: grg22: EPSP synthase of Methanopyrus kandleri (SEQ ID NO:10), synthetic gene in plasmid pAX724 (protein, listed as Methanopyrus kanleri)
chain: MKRVELEGIPEVRGTVCPPPSKSGSHRALIAASLCDGSTELWNVLDAEDVRATLRLCRMLGAEVDVDGEERLEATVSGFGDSPRAPEDVVDCGNSGTTLRLGCGLAALVEGTTILTGDDSLRSRPVGDLLAALRSLGVDARGRVVRGEEYPPVVISGRPLRERVAVYGDVSSQFVSALLFLGAGLGALRVDVVGDLRSRPYVDMTVETLERFGVSVVREGSSFEVEGRPRSPGKLRVENDWSSAGYFVALGAIGGEMRIEGVDLDSSHPDRRIVEITREMGAEVRRIDGGIVVRSTGRLEGVEVDLSDSPDLVPTVAAMACFAEGVTRIENVGHLRYKEVDRLRALAAELPKFGVEVREGKDWLEIVGGEPVGARVDSRGDHRMAMALAVVGAFARGKTVVERADAVSISYPRFWEDLASVGVPVHSV
- Glyphosate resistance conferred by expression in E. coli (summary in words) (E. coli cells): confers resistance to high levels of glyphosate

B3: grg21: EPSP synthase of Fusobacterium nucleatum (SEQ ID NO:8), synthetic gene in plasmid pAX723 (protein, listed as Fusobacterium nucleatum)
chain: MRNMNKKIIKADKLVGEVTPPPSKSVLHRYIIASSLAKGISKIENISYSDDIIATIEAMKKLGANIEKKDNYLLIDGSKTFDKEYLNNDSEIDCNESGSTLRFLFPLSIVKENKILFKGKGKLFKRPLSPYFENFDKYQIKCSSINENKILLDGELKSGVYEIDGNISSQFITGLLFSLPLLNGNSKIIIKGKLESSSYIDITLDCLNKFGINIINNSYKEFIIEGNQTYKSGNYQVEADYSQVAFFLVANSIGSNIKINGLNVNSLQGDKKIIDFISEIDNWTKNEKLILDGSETPDIIPILSLKACISKKEIEIVNIARLRIKESDRLSATVQELSKLGFDLIEKEDSILINSRKNFNEISNNSPISLSSHSDHRIAMTVAIASTCYEGEIILDNLDCVKKSYPNFWEVFLSLGGKIYEYLG
- Glyphosate resistance conferred by expression in E. coli (summary in words) (E. coli cells): confers resistance to high levels of glyphosate

B4: grg10: EPSP synthase of Clostridium acetobutylicum (SEQ ID NO:6), expressed from plasmid pAX714 (protein, listed as Clostridium acetobutylicum)
chain: MNCVKINPCCLKGDIKIPPSKSLGHRAIICAALSEEESTIENISYSKDIKATCIGMSKLGALIIEDAKDNSTLKIKKQKLVSKEKVYIDCSESGSTVRFLIPISLIEERNVVFDGQGKLSYRPLDSYFNIFDEKEIAYSHPEGKVLPLQIKGRLKAGMFNLPGNISSQFISGLMFSLPFLEGDSIINITTNLESVGYVDMTIDMLKKFGIEIENKAYKSFFIKGNQKCKGTKYKVEGDFSQAAFWLSAGILNGNINCKDLNISSLQGDKVILDILKKMGGAIDEKSFSSKKSHTHGIVIDASQCPDLVPILSVVAALSEGTTKIVNAARLRIKESDRLKAMATELNKLGAEVVELEDGLLIEGKEKLKGGEVESWNDHRIAMALGIAALRCEESVTINGSECVSKSYPQFWSDLKQLGGDVHEWSLGE
- Glyphosate concentration to which the encoded EPSP synthase is resistant (E. coli cells; E. coli DH5a on minimal M63 media, 37° C.): at least 100 mM
- Glyphosate resistance conferred by expression in E. coli (summary in words) (E. coli cells): confers resistance to high levels of glyphosate
- Growth of pAX714-containing cells on glyphosate (E. coli cells; minimal M63 media with IPTG, carbenicillin and 0, 20, 50 or 100 mM glyphosate, 37° C.): grew very well on all concentrations of glyphosate tested

B5: GRG1: EPSP synthase (SEQ ID NO:2) that confers glyphosate resistance, from U.S. application 10/739,610 (protein, listed as Enterobacteriaceae sp.)
chain: VKVTIQPGDLTGIIQSPASKSSMQRACAAALVAKGISEIINPGHSNDDKAARDIVSRLGARLEDQPDGSLQITSEGVKPVAPFIDCGESGLSIRMFTPIVALSKEEVTIKGSGSLVTRPMDFFDEILPHLGVKVKSNQGKLPLVIQGPLKPADVTVDGSLSSQFLTGLLLAYAAADASDVAIKVTNLKSRPYIDLTLDVMKRFGLKTPENRNYEEFYFKAGNVYDETKMQRYTVEGDWSGGAFLLVAGAIAGPITVRGLDIASTQADKAIVQALMSANAGIAIDAKEIKLHPADLNAFEFDATDCPDLFPPLVALASYCKGETKIKGVSRLAHKESDRGLTLQDEFGKMGVEIHLEGDLMRVIGGKGVKGAEVSSRHDHRIAMACAVAALKAVGETTIEHAEAVNKSYPDFYSDLKQLGGVVSLNHQFNFS
- Glyphosate resistance or tolerance conferred on organisms (in words) (bacteria and plants): confers glyphosate resistance upon both bacteria and plants

B6: GRG23: EPSP synthase (SEQ ID NO:14) isolated from a bacterial strain exhibiting strong glyphosate resistance (protein, listed as Arthrobacter globiformis)
chain: MALERGQHGRSRRLFGASLERITMETDRLVIPGSKSITNRALLLAAAAKGTSVLVRPLVSADTSAFKTAIQALGANVSADGDNWVVEGLGQAPHLDADIWCEDAGTVARFLPPFVAAGQGKFTVDGSEQLRRRPLRPLVDGIRHLGARVSSEQLPLTIEASGLAGGEYEIEAHQSSQFASGLIMAAPYARQGLRVRIPNPVSQPYLTMTLRMMRDFGLETSTDGATVSVPPGRYTARRYEIEPDASTASYFAAASAVSGRSFEFQGLGTDSIQGDTSFFNVLGRLGAEVHWAPNSVTISGPERLNGDIEVDMGEISDTFMTLAAIAPLADGPITITNIGHARLKESDRISAMETNLRTLGVQTDVGHDWMRIYPSTPHGGRVNCHRDHRIAMAFSILGLRVDGITLDDPQCVGKTFPGFFDYLGRLFPEKALTLPG
modifications: VARIANT (0)...(0) Strain ATX21308
- Glyphosate resistance or tolerance conferred on organisms (in words) (bacteria and plants): confers glyphosate tolerance
